From paper PMC3349575

biological target: XD-CGFP fusion protein (X domain of the measles virus phosphoprotein fused to the C-terminal half of eGFP) (UniProt P03422); assay: split-GFP reassembly assay (fluorescence to OD600 ratio of E. coli co-expressing NGFP-N_TAIL and XD-CGFP); conditions: parent: est. 1.1; read off a plot
Chain of UniProt P03422 (P03422 459-507): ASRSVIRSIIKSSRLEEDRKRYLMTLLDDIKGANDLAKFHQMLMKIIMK

Substance | response (x10^4 fluorescence intensity / OD600)
NGFP-wtN_TAIL fusion protein (C-terminal domain of the measles virus nucleoprotein fused to the N-terminal half of eGFP) mutant 1 (substitutions not printed) | 1.1
NGFP-wtN_TAIL fusion protein (C-terminal domain of the measles virus nucleoprotein fused to the N-terminal half of eGFP) mutant 3 (substitutions not printed) | 0.54
NGFP-wtN_TAIL fusion protein (C-terminal domain of the measles virus nucleoprotein fused to the N-terminal half of eGFP) mutant 2 (substitutions not printed) | 0.9
